Experimental data published in IntAct's records for PubMed 31515488.

B1: Ribosome quality control complex subunit TCF25 (Homo sapiens), Q9BQ70 (parent)
chain: MSRRALRRLRGEQRGQEPLGPGALHFDLRDDDDAEEEGPKRELGVRRPGGAGKEGVRVNNRFELINIDDLEDDPVVNGERSGCALTDAVAPGNKGRGQRGNTESKTDGDDTETVPSEQSHASGKLRKKKKKQKNKKSSTGEASENGLEDIDRILERIEDSTGLNRPGPAPLSSRKHVLYVEHRHLNPDTELKRYFGARAILGEQRPRQRQRVYPKCTWLTTPKSTWPRYSKPGLSMRLLESKKGLSFFAFEHSEEYQQAQHKFLVAVESMEPNNIVVLLQTSPYHVDSLLQLSDACRFQEDQEMARDLVERALYSMECAFHPLFSLTSGACRLDYRRPENRSFYLALYKQMSFLEKRGCPRTALEYCKLILSLEPDEDPLCMLLLIDHLALRARNYEYLIRLFQEWEAHRNLSQLPNFAFSVPLAYFLLSQQTDLPECEQSSARQKASLLIQQALTMFPGVLLPLLESCSVRPDASVSSHRFFGPNAEISQPPALSQLVNLYLGRSHFLWKEPATMSWLEENVHEVLQAVDAGDPAVEACENRRKVLYQRAPRNIHRHVILSEIKEAVAALPPDVTTQSVMGFDPLPPSDTIYSYVRPERLSPISHGNTIALFFRSLLPNYTMEGERPEEGVAGGLNRNQGLNRLMLAVRDMMANFHLNDLEAPHEDDAEGEGEWD
B2: Coiled-coil domain-containing protein 185 (Homo sapiens), Q8N715 (parent)
chain: MAGFSHFSQPPYRDLWEPPRPGGERESTQRLGGQRSGADSTACSRAGTPGAESEAGACWLHPHCSFTPRPRRRGCSDSLRGSRSLSDVARRPLERSRKHRPRSRRLEDAWGETGTKPRPAWQPQTQLPPQRPQPCPHYPLAQGDSPPPCPGGAGTPLSGTFRVEKAQGGDQWAVPLGRHLGRWSPSSVPSERSSVPSQKFKRHSACVCAQKRDSSDQVESLASRDSQPLASSKEMRSPHTQVLKSKLEEVVVSSQDQQIVALVLTRLKKAQRIRELQQQAAKAWEELKRSDQKVQMTLERERRLLLRQSQEQWQEKEQRKTLQSPEQRGLRRDSQRKNVPPGESRWKEQPEDQESPRQEKLEKARAQAEHRKQCQVRRLREQEKMLRNLREQHSLQLQRRLVEACRKRHLHAVEGQKKVQDTNLSSLINYQARKVLMDCQAKAEELLRQLSLEQSFQRSQEIHQGLRKERQRELREKAQKEEEQLQQARWRAGESEEQRKMRKRILVELADEKIRQARSHVHKTTRDKVQHLRELNHLREKNHHILKLKAEKEEKCHIEGIKEAIKKKEQRVQHISQGKDPNFQEFQKLPQASRREERAPPNSSLDQMVLEAQLRACQQNRGY
B3: Alpha-ketoglutarate-dependent dioxygenase alkB homolog 3 (Homo sapiens), Q96Q83 (parent)
chain: MEEKRRRARVQGAWAAPVKSQAIAQPATTAKSHLHQKPGQTWKNKEHHLSDREFVFKEPQQVVRRAPEPRVIDREGVYEISLSPTGVSRVCLYPGFVDVKEADWILEQLCQDVPWKQRTGIREDITYQQPRLTAWYGELPYTYSRITMEPNPHWHPVLRTLKNRIEENTGHTFNSLLCNLYRNEKDSVDWHSDDEPSLGRCPIIASLSFGATRTFEMRKKPPPEENGDYTYVERVKIPLDHGTLLIMEGATQADWQHRVPKEYHSREPRVNLTFRTVYPDPRGAPW
partner: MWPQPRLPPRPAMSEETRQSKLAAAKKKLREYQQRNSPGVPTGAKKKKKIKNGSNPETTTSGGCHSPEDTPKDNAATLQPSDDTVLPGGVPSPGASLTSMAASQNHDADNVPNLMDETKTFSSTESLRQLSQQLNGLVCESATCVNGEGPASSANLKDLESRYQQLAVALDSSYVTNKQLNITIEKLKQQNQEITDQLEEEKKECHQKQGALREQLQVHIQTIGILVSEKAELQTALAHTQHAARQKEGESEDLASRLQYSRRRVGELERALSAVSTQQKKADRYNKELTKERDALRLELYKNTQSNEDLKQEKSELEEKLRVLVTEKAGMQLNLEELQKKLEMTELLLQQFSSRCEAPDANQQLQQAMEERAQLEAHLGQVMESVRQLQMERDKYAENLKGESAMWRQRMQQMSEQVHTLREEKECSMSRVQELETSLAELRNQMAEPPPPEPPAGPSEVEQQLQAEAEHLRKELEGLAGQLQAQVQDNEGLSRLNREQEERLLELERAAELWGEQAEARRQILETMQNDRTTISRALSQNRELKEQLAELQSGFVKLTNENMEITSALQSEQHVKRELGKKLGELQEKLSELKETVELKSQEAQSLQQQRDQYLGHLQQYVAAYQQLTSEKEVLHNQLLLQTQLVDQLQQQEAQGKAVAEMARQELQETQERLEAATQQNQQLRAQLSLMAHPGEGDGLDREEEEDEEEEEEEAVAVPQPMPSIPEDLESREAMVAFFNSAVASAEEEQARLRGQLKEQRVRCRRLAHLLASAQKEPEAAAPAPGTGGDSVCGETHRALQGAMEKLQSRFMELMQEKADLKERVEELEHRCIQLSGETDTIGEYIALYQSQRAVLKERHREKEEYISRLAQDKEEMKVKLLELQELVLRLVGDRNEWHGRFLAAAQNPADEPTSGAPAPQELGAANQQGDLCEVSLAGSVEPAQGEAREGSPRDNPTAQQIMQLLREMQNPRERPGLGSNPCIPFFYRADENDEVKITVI
B4: Farnesyl pyrophosphate synthase (Homo sapiens), P14324 (parent)
chain: MPLSRWLRSVGVFLLPAPYWAPRERWLGSLRRPSLVHGYPVLAWHSARCWCQAWTEEPRALCSSLRMNGDQNSDVYAQEKQDFVQHFSQIVRVLTEDEMGHPEIGDAIARLKEVLEYNAIGGKYNRGLTVVVAFRELVEPRKQDADSLQRAWTVGWCVELLQAFFLVADDIMDSSLTRRGQICWYQKPGVGLDAINDANLLEACIYRLLKLYCREQPYYLNLIELFLQSSYQTEIGQTLDLLTAPQGNVDLVRFTEKRYKSIVKYKTAFYSFYLPIAAAMYMAGIDGEKEHANAKKILLEMGEFFQIQDDYLDLFGDPSVTGKIGTDIQDNKCSWLVVQCLQRATPEQYQILKENYGQKEAEKVARVKALYEELDLPAVFLQYEEDSYSHIMALIEQYAAPLPPAVFLGLARKIYKRRK
partner: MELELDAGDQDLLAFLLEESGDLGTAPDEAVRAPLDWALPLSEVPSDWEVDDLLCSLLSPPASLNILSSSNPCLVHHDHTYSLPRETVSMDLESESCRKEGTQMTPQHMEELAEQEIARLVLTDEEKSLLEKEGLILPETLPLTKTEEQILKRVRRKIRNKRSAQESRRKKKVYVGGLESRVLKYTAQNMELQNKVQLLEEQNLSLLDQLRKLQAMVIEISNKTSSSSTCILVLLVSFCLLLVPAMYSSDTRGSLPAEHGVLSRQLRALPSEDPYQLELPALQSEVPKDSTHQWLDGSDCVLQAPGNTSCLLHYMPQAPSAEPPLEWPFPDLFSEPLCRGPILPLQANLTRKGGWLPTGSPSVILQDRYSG
B5: Thioredoxin-dependent peroxide reductase, mitochondrial (Homo sapiens), P30048 (parent)
chain: MAAAVGRLLRASVARHVSAIPWGISATAALRPAACGRTSLTNLLCSGSSQAKLFSTSSSCHAPAVTQHAPYFKGTAVVNGEFKDLSLDDFKGKYLVLFFYPLDFTFVCPTEIVAFSDKANEFHDVNCEVVAVSVDSHFSHLAWINTPRKNGGLGHMNIALLSDLTKQISRDYGVLLEGSGLALRGLFIIDPNGVIKHLSVNDLPVGRSVEETLRLVKAFQYVETHGEVCPANWTPDSPTIKPSPAASKEYFQKVNQ
B6: Methylthioribulose-1-phosphate dehydratase (Homo sapiens), Q96GX9 (parent)
chain: MSGCDAREGDCCSRRCGAQDKEHPRYLIPELCKQFYHLGWVTGTGGGISLKHGDEIYIAPSGVQKERIQPEDMFVCDINEKDISGPSPSKKLKKSQCTPLFMNAYTMRGAGAVIHTHSKAAVMATLLFPGREFKITHQEMIKGIKKCTSGGYYRYDDMLVVPIIENTPEEKDLKDRMAHAMNEYPDSCAVLVRRHGVYVWGETWEKAKTMCECYDYLFDIAVSMKKVGLDPSQLPVGENGIV
partner: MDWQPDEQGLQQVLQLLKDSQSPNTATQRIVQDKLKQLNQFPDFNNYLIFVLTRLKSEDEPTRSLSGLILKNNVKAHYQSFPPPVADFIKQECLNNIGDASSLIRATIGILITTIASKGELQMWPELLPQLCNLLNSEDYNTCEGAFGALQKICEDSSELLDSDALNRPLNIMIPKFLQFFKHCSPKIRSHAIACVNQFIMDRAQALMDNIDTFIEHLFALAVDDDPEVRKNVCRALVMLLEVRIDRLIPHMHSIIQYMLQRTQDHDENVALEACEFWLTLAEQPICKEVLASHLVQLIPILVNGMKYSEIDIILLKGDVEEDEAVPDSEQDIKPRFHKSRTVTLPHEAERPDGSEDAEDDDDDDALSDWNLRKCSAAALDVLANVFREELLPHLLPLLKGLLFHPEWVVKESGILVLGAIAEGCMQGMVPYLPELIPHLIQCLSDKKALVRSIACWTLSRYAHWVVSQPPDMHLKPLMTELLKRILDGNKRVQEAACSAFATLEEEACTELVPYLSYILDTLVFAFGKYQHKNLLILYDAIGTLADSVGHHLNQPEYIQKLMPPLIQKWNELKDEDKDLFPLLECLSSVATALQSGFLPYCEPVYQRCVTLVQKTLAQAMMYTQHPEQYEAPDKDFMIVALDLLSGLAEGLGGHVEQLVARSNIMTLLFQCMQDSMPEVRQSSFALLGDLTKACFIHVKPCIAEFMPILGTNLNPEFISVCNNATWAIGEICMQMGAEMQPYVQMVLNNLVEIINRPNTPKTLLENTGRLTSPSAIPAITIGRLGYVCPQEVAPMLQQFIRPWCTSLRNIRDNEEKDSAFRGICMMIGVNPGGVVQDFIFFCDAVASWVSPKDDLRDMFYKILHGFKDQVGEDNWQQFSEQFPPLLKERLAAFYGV

Variants of: B1
Details: with sat1_human SAT1, P21673
Chain of sat1_human SAT1, P21673 (P21673 whole entry): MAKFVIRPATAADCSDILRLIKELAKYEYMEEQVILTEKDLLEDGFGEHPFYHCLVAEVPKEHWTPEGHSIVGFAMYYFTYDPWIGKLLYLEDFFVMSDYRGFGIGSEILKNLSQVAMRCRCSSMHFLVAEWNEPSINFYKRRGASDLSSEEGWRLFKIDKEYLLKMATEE

effect of a mutation on the interaction | Variant
with no effect | V526A

Variants of: B2
Details: with KRT15, P19012
Chain of KRT15, P19012 (P19012 whole entry): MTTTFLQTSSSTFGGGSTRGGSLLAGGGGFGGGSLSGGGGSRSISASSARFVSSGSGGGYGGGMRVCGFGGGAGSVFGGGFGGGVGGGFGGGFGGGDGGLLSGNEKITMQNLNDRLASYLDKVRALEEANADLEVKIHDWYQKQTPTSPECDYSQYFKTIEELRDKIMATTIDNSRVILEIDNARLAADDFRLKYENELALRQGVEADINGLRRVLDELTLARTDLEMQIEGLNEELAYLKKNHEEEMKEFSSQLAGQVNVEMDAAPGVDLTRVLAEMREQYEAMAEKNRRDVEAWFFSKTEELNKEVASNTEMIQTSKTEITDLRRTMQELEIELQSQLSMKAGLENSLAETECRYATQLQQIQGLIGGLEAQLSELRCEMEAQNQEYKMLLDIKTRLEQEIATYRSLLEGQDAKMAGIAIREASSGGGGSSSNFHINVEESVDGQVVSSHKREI

effect of a mutation on the interaction | Variant
with no effect | S603G

Variants of: B3
Details: with goga2_human GOLGA2, Q08379

effect of a mutation on the interaction | Variant
with no effect | G39C

Variants of: B4
Details: with creb3_human CREB3, O43889

effect of a mutation on the interaction | Variant
with no effect | R150Q

Variants of: B5
Details: with gors2_human GORASP2, Q9H8Y8

effect of a mutation on the interaction | Variant
with no effect | G173C

Variants of: B6
Details: with tnpo2_human TNPO2, O14787

effect of a mutation on the interaction | Variant
with no effect | G111A
